# In patent US20250290928A1, “METHOD, KIT AND DEVICE FOR DETECTING EXTRACELLULAR VESICLES” (priority 2022, published 2025):
# *: point of attachment. 5FAM = O=C1OC2(c3ccc(O)cc3Oc3cc(O)ccc32)c2ccc(C(=O)*)cc21; TQ2 = quencher
# Assays:
# [1] = target: T1, MMP14 in the MDA-MB-231-derived extracellular vesicles (Homo sapiens, UniProt P50281); assay: Evaluation of MMP14 activity of MDA-MB-231-derived extracellular vesicles with 96-well plate; assay type: biochemical; details: for reaction rate per 1 μg/mL of extracellular vesicles: within 1 hour
# T1 construct: in terms of intact MMP14 with a molecular weight of 70 kDa
# How it was run: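 MMP14 activity in extracellular vesicles was measured by adding detection solution to samples and reading fluorescence kinetically every 5 min. Conditions were 37° C. for 1 h (ex 485/em 528 nm) or 2 h (ex 325/em 392 nm), or 30° C. for 2 h (ex 545/em 588 nm). Background was subtracted to give ΔRFU.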
# [2] = target: T1, MMP14 in the MDA-MB-231-derived extracellular vesicles; assay: Digital detection of MDA-MB-231-derived extracellular vesicles through MMP14 activity in wells (microcompartments); assay type: biochemical
# How it was run: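 MDA-MB-231 extracellular-vesicle samples were mixed 1:1 with MMP14 detection solution. The reaction mix was sealed under fluorinated oil in 50 fL microwells (239,000-well array), giving digital single-well readout of MMP14 activity. Standard samples were prepared by serial dilution, and bulk MMP14 activity was also measured in 96-well format.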
# [3] = Example 9, EV 4 μg/mL, buffer (3), 37° C., Lineweaver-Burk plots
# [4] = Example 20, 37° C., 5 h, BG, EV 0 (free of extracellular vesicles, pseudopositive)
# [5] = Example 20, 37° C., 5 h, ΔBG Absent, EV 0.0001 a.u.
# [6] = Example 20, 37° C., 5 h, ΔBG Absent, EV 0.001 a.u.
# [7] = Example 20, 37° C., 5 h, ΔBG Absent, EV 0.01 a.u.
# [8] = Example 20, 37° C., 5 h, ΔBG Absent, EV 0.1 a.u.
# [9] = Example 20, 37° C., 5 h, ΔBG Absent, EV 1 a.u. (x1=10 μg/mL)
# [10] = Example 20, 37° C., 5 h, ΔBG Present (positives at EV 0 subtracted), EV 1 a.u.
# [11] = Example 20, 37° C., 5 h, ΔBG Present, EV 0.001 a.u.
# [12] = Example 20, 37° C., 5 h, ΔBG Present, EV 0.01 a.u.
# [13] = Example 20, 37° C., 5 h, ΔBG Present, EV 0.1 a.u.
# [14] = Example 22, buffer (2), 37° C., 1 h, EV 0 (free of extracellular vesicles)
# [15] = Example 22, buffer (2), 37° C., 1 h, EV 0.111 a.u.
# [16] = Example 22, buffer (2), 37° C., 1 h, EV 0.333 a.u.
# [17] = Example 22, buffer (2), 37° C., 1 h, EV 1 a.u. (x1=10 μg/mL)
# [18] = Example 22, buffer (2), 37° C., 2 h, EV 0 (free of extracellular vesicles)
# [19] = Example 22, buffer (2), 37° C., 2 h, EV 0.111 a.u.
# [20] = Example 22, buffer (2), 37° C., 2 h, EV 0.333 a.u.
# [21] = Example 22, buffer (2), 37° C., 2 h, EV 1 a.u. (x1=10 μg/mL)
substance,measurement,setting,value
[5-FAM]GRIGFLRTAK(TQ2)[OH] (5FAM-GRIGFLRTAK(TQ2)-OH) [Custom #1],increase in fluorescence intensity (temporal change),"[1]; Example 4, EV 5 μg/mL, reporter 5 μM, 37° C., Assay buffer (Component D)",more significant than that from SensoLyte 520 MMP-14
same,reaction rate per 1 μg/mL of extracellular vesicles,"[1]; Example 5, Assay buffer (Component D) of SensoLyte 520 MMP-14 Assay Kit, reporter 5 μM, 37° C.",101.5 ΔRFU/min
same,reaction rate per 1 μg/mL of extracellular vesicles,"[1]; Example 8, buffer (2), reporter 5 μM, 37° C.",198 ΔRFU/min
same,Km,[1]; [3],0.443 µM
same,Vmax,[1]; [3],"1,278.77 ΔRFU/min"
same,cleaved more easily than Custom #2,[1]; Example 9 reaction conditions,about 2.5 times
same,fluorescence intensity at the same extracellular vesicle concentration,"[1]; Example 10, buffer (3), reporter 5 μM, 37° C.",higher than the fluorescence intensity from Custom #2
same,extracellular vesicle concentration at which MMP14 activity was able to be detected with a 96-well plate,"[1]; buffer (4), reporter 5 μM, 37° C.",≥ 1 µg/mL
same,Expected value λ,[2]; [4],0.000553
same,Number of positives,[2]; [4],32
same,Positive ratio,[2]; [4],0.000553
same,Expected value λ,[2]; [5],0.000535
same,Number of positives,[2]; [5],31
same,Positive ratio,[2]; [5],0.000534
same,Expected value λ,[2]; [6],0.00285
same,Number of positives,[2]; [6],165
same,Positive ratio,[2]; [6],0.00285
same,Expected value λ,[2]; [7],0.0115
same,Number of positives,[2]; [7],661
same,Positive ratio,[2]; [7],0.0114
same,Expected value λ,[2]; [8],0.137
same,Number of positives,[2]; [8],"7,404"
same,Positive ratio,[2]; [8],0.128
same,Expected value λ,[2]; [9],1.16
same,Number of positives,[2]; [9],"39,601"
same,Positive ratio,[2]; [9],0.686
same,Expected value λ,[2]; [10],1.16
same,Number of positives,[2]; [10],"39,569"
same,Positive ratio,[2]; [10],0.685
same,Number of positives,"[2]; Example 20, 37° C., 5 h, ΔBG Present, EV 0.0001 a.u.",−1
same,Expected value λ,[2]; [11],0.0023
same,Number of positives,[2]; [11],133
same,Positive ratio,[2]; [11],0.0023
same,Expected value λ,[2]; [12],0.0109
same,Number of positives,[2]; [12],629
same,Positive ratio,[2]; [12],0.0109
same,Expected value λ,[2]; [13],0.136
same,Number of positives,[2]; [13],"7,372"
same,Positive ratio,[2]; [13],0.128
same,λ at x1 in an approximation with BG correction,"[2]; Example 20, 5 h",1.07
same,λ at x1 in an approximation without BG correction,"[2]; Example 20, 5 h",1.03
same,Extracellular vesicle concentration,"[2]; Example 20, with BG correction",2.1e+10 mL⁻¹
same,"extracellular vesicles in which MMP14 activity can be detected, contained in 1 μL of the extracellular vesicles (50 μg of protein in 50 μL of PBS)","[2]; Example 20, with BG correction",2.1×10^9
same,Extracellular vesicle concentration,"[2]; Example 20, without BG correction",2.1×10^9 /μg of protein
same,Extracellular vesicle concentration,"[2]; Example 20, without BG correction, reaction solution 10 μg of protein/mL, 50 fL",2.1e+10 mL⁻¹
same,expected value λ at x1 (power approximation),"[2]; Example 22, after 1 hour",0.661
same,expected value λ at x1 (power approximation),"[2]; Example 22, after 2 hours",0.7145
same,Expected value λ,[2]; [14],0.000725
same,Number of positives,[2]; [14],21
same,Positive ratio,[2]; [14],0.000725
same,Expected value λ,[2]; [15],0.0784
same,Number of positives,[2]; [15],"2,186"
same,Positive ratio,[2]; [15],0.0754
same,Expected value λ,[2]; [16],0.237
same,Number of positives,[2]; [16],"6,117"
same,Positive ratio,[2]; [16],0.211
same,Expected value λ,[2]; [17],0.65
same,Number of positives,[2]; [17],"13,855"
same,Positive ratio,[2]; [17],0.478
same,Expected value λ,[2]; [18],0.000794
same,Number of positives,[2]; [18],23
same,Positive ratio,[2]; [18],0.000794
same,Expected value λ,[2]; [19],0.0822
same,Number of positives,[2]; [19],"2,287"
same,Positive ratio,[2]; [19],0.0789
same,Expected value λ,[2]; [20],0.238
same,Number of positives,[2]; [20],"6,143"
same,Positive ratio,[2]; [20],0.212
same,Expected value λ,[2]; [21],0.719
same,Number of positives,[2]; [21],"14,860"
same,Positive ratio,[2]; [21],0.513
same,extracellular vesicle concentration at which MMP14 activity was able to be detected in the microcompartments,"[2]; Simoa Discs, buffer (4), reporter 5 μM, 37° C.",≥ 10 ng/mL
